This is an account of results in PMC3281051, “Probing High Affinity Sequences of DNA Aptamer against VEGF165”.

Data set [1] addresses VEGF on HT-29 cells (human) (UniProt P15692). As to the kind of experiment: flow cytometry. Particulars: hypoxia 1% O2, 37 C, scrambled signal subtracted, SPR (BIAcore 2000, CM5): PBS + 0.005% Tween-20, 25 C, 30 ul/min, aptamer 0.2-100 nM, 1:1 Langmuir fit, cells: culture medium, 2 h. Background: Flow cytometry measures light scatter and fluorescence of single cells or particles in a stream.

Data set [2] addresses VEGF165, human (Homo sapiens (Human), UniProt P15692 27-191). The data set is described as follows: SPR; PBS, 0.005% Tween-20, 25 C; protein amine-coupled on CM5. Particulars: chain copies: 2. On the technique in general: SPR reads the build-up and loss of mass on a sensor chip optically.
The target of data set [3] is VEGF165 (human, UniProt P15692-4 27-191). The data set is described as follows: SPR; SPR (BIAcore 2000, CM5): PBS + 0.005% Tween-20, 25 C, 30 ul/min, aptamer 0.2-100 nM, 1:1 Langmuir fit; cells: culture medium, 37 C, 2 h, 1% O2. The following applies: protein: commercial, tags: carrier-free, chain copies: 2.
In data set [4] the target is VEGF121 (human, UniProt P15692-9 27-147). Described as above. The following applies: protein: commercial; tags: carrier-free; chain copies: 2; hairpin.
VEGF121, sequence (P15692 other isoform, or with tags, fused parts or gaps): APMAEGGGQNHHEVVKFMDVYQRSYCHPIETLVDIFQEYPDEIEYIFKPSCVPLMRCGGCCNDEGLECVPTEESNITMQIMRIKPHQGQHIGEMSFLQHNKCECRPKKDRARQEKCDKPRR

VEGF165, sequence (P15692 other isoform, or with tags, fused parts or gaps): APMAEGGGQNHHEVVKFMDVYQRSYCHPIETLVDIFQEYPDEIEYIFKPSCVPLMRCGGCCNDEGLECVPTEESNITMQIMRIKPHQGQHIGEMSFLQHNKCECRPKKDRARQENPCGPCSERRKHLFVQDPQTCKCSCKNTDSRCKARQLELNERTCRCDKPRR
VEGF on HT-29 cells (human), sequence (P15692 whole entry): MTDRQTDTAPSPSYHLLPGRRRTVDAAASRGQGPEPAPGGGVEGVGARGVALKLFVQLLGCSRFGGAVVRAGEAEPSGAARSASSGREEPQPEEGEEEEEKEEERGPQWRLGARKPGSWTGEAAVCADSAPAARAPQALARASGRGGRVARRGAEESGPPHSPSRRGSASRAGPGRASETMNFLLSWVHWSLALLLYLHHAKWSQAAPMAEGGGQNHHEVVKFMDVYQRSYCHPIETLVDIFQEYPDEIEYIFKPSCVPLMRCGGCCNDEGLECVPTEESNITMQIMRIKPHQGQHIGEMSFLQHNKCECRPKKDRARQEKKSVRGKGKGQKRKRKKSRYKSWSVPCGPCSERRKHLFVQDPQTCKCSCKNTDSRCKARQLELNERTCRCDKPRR

For the molecule “CAATTGGGCCCGTCCGTATGGTGGGT [SL2-B Texas Red]”, the dissociation constant Kd in data set [1] was 1 nM.

B1: VEa5 (ssDNA)
DNA: ATACCAGTCTATTCAATTGGGCCCGTCCGTATGGTGGGTGTGCTGGCCAGATAGTATGTGCAATCA
Turning to B1, the Kd in data set [2] and in data set [3] (3 stem-loops (mfold)) was 120 ± 1.8 nM in each case. For the molecule CAATTGGGCCCGTCCGTATGGTGGGT (ssDNA) [SL2-B], the Kd turned out to be 10200 ± 1890 nM in data set [4] and 0.5 ± 0.32 nM in data set [3] (hairpin).

Regarding ATACCAGTCTATTCAATTGG (ssDNA) [SL1], the binding result in data set [3] (hairpin) is recorded as “no binding”. On to GCCCGTCCGTATGGTGGGT (ssDNA) [SL2-A], for which the Kd in data set [3] (hairpin) was determined as 10 ± 1.1 nM. Still for that read-out and setting: next, CCCGTCCGTATGGTGGG (ssDNA) [SL2]: 49 ± 2.4 nM.

Broadly, the Kd is the equilibrium constant for the complex coming apart.
